# According to PMC2891831, “Insight into the Mechanisms of Adenovirus Capsid Disassembly from Studies of Defensin Neutralization” (PLoS Pathogens, 2010):
# B1: HD5: human alpha-defensin; synthetic, obtained from Peptides International; three disulfide bonds (PDB 1ZMP) (peptide, UniProt Q01523 20-94, looked up)
# Defensin alpha 5: ESLQERADEATTQKQSGEDNQDLAISFAGNGLSALRTSGSQARATCYCRTGRCATRESLSGVCEISGRLYRLCCR
# modifications: Defensin-5
# Legend:
# PB/GYAR = assay: Infection assay, PB/GYAR virus chimera; format: cell-based, human adenovirus
# Procedure: Figure 6 Neutralization determinants are located in fiber and penton base. A) Schematic of chimeric viruses. Capsid proteins are depicted in the order in which they are encoded in the virus genome for HAdV-5 (white) and HAdV-19c (grey). The variable residues in fiber (GYAR and DTET) are indicated for each construct. B) Each of the chimeric viruses was incubated with 5 µM (grey) or 10 µM (black) HD5 and assessed for infectivity on A549 cells. Data are the mean of the percent infectivity compared to control cells infected with each virus in the absence of defensin for at least three independent experiments ± SD. The upper limit for quantification of this assay is 200%.
# We then combined the GYAR substitution with the PB substitution in a single construct (PB/GYAR).
# (§1) Prior to use in this assay, each virus stock was titrated on A549 cells. A virus concentration was chosen to produce 50–70% maximal signal in the absence of defensin as described below. […] In parallel, wells were infected with two-fold serial dilutions of each virus to establish a standard curve for quantification with an upper limit of 200%. […] Total well fluorescence above background was quantified with ImageJ software. For each virus, samples were quantified by nonlinear regression against the standard curve using Prism software (GraphPad Software, Inc., La Jolla, CA).
# HAdV-5 = conditions: ref [13], cited from earlier work
# Procedure: In order to determine the receptor-dependence of this effect, we pre-incubated cells with recombinant fiber knob from HAdV-5 (5FK) to block receptor (CAR) interactions and measured cell binding of fluorescently labeled HAdV-5 that was pre-incubated with or without HD5 or HD5-Abu (Figure 3C). Cells incubated with fiber knob from HAdV-16 (16FK), which binds CD46, served as a control. […] Therefore, we considered which of the multiple binding sites visualized by cryoEM might lead to enhanced virion stability. We reasoned that we might find a negatively charged region o ...
# HAdV-F serotypes = assay: Infection assay (hexon staining), HAdV species F; format: cell-based, human adenovirus; conditions: 15 µM HD5, A549 cells, hexon staining at ~48 h, vs. no defensin; upper limit 200%
# Procedure: (§2) To determine whether sensitivity to α-defensins is a general property of HAdVs, serotypes representative of HAdV species A–F were tested for infectivity in the presence of 15 µM HD5 or HNP1 (Figure 1). Wild type HAdVs rather than vectors were used for these studies, and infectivity was assessed by staining for hexon production. […] These studies indicate that sensitivity to α-defensins is species specific. In addition, particular HAdV serotypes are not equally sensitive to all defensins, indicating defensin sequence specificity as well.
# (§3) Figure 1 Sensitivity to neutralization by alpha-defensins is AdV species specific. HAdVs were incubated with 15 µM HD5 (A) or HNP1 (B) and assessed for infectivity on A549 cells. Data are the mean of the percent infectivity compared to control cells infected with each virus in the absence of defensin for at least three independent experiments ± SD. The upper limit for quantification of this assay is 200%. […]
# as §1, with “cells.” for “cells. A virus concentration was chosen to produce 50–70% maximal signal in the absence of defensin as described below.”
# HAdV-D serotypes = assay: Infection assay (hexon staining), HAdV species D; format: cell-based, human adenovirus; conditions: 15 µM HD5, A549 cells, hexon staining at ~48 h, vs. no defensin; upper limit 200%
# Procedure: as §2, §3
# as §1, with “cells.” for “cells. A virus concentration was chosen to produce 50–70% maximal signal in the absence of defensin as described below.”
molecule,measurement,setting,value
B1,sensitivity to HD5 neutralization,"PB/GYAR; 5 µM and 10 µM HD5, A549 cells, at least three independent experiments",completely resistant to neutralization
same,defensin-resistance at higher HD5 concentration,"PB/GYAR; 20 µM HD5, data not shown",confirmed the defensin-resistance
same,effect on HAdV-5 entry into host cells,HAdV-5; [36],does not prevent HAdV-5 from entering host cells
same,binding of HAdV-5 to cells,HAdV-5,enhances binding of HAdV-5 to cells
same,sensitivity to neutralization (infectivity),HAdV-F serotypes,"completely resistant to HD5-mediated neutralization and, in most cases, infection is actually enhanced"
same,sensitivity to neutralization (infectivity),HAdV-D serotypes,"completely resistant to HD5-mediated neutralization and, in most cases, infection is actually enhanced"
